Measured values as given in patent US5876691A, “Antibody against carcionembryonic antigen (CEA)” (Cancer Research Campaign Technology Limited, priority 1993, dated 1999).

What was measured:
[1] = target: carcinoembryonic antigen (CEA) (human) (UniProt P06731); assay: fluorescence quench
[2] = target: carcinoembryonic antigen (CEA) (human) (UniProt P06731); assay: fluorescence quench, purified soluble scFv
[3] = target: carcinoembryonic antigen (CEA) (human) (UniProt P06731); assay: summary of the affinity comparison with A5B7
[4] = target: carcinoembryonic antigen (CEA) (human) (UniProt P06731); assay: 125I-labelled scFv applied to a 1 ml CEA/Sepharose column (1 mg CEA)
[5] = target: carcinoembryonic antigen (CEA) (human) (UniProt P06731); assay: radiolabelled scFv applied to a CEA coupled Sepharose 4B column, gamma counting
[6] = target: carcinoembryonic antigen (CEA) (human) (UniProt P06731); assay: radiolabelled control scFv applied to a CEA coupled Sepharose 4B column, gamma counting
[7] = target: carcinoembryonic antigen (CEA) (human) (UniProt P06731); assay: 99mTc-labelled MFE-cys applied to a 1 ml CEA/Sepharose column (1 mg CEA), bound material eluted with 3M ammoniumthiocyanate
[8] = target: carcinoembryonic antigen (CEA) (human) (UniProt P06731); assay: CEA column, after radiolabelling with 125I
[9] = target: carcinoembryonic antigen (CEA) (human) (UniProt P06731); assay: unbound fraction of 125I-MFE-23 His reapplied to the CEA column
[10] = target: carcinoembryonic antigen (CEA) (human) (UniProt P06731); assay: 125I-labelled scFv applied to a CEA coupled Sepharose 4B column, gamma counting
[11] = target: carcinoembryonic antigen (CEA) (human) (UniProt P06731); assay: known amount of antibody applied to the CEA affinity column after 6 months storage at 4 C
[12] = target: carcinoembryonic antigen (CEA) (human) (UniProt P06731); assay: IMAC purified MFE-23 His, 1 mg applied to the CEA affinity column after 6 months storage at 4 C
[13] = target: carcinoembryonic antigen (CEA) (human) (UniProt P06731); assay: IMAC purified MFE-23 His, 2 mg applied to the CEA affinity column after 6 months storage at 4 C
[14] = target: carcinoembryonic antigen (CEA) (human) (UniProt P06731); assay: IMAC purified MFE-23 His, 0.5 mg applied to the CEA affinity column after 6 months storage at 4 C
[15] = target: carcinoembryonic antigen (CEA) (human) (UniProt P06731); assay: MFE-23 His purified by CEA antigen affinity chromatography, 1 mg applied to the CEA affinity column
[16] = target: carcinoembryonic antigen (CEA) (human) (UniProt P06731); assay: CEA affinity column, after 6 months storage at 4 C, compared with MFE-23 His purified on the same column
[17] = target: carcinoembryonic antigen (CEA) (human) (UniProt P06731); assay: 125I-labelled scFv applied to a CEA coupled Sepharose 4B column, gamma counting; total recovered 1710 cpm
CEA [18] = target: T1, CEA (Homo sapiens, UniProt P06731); assay: Dissociation constant (Kd) by fluorescence quench; settings: binding to CEA
T1 sequence (P06731 35-702): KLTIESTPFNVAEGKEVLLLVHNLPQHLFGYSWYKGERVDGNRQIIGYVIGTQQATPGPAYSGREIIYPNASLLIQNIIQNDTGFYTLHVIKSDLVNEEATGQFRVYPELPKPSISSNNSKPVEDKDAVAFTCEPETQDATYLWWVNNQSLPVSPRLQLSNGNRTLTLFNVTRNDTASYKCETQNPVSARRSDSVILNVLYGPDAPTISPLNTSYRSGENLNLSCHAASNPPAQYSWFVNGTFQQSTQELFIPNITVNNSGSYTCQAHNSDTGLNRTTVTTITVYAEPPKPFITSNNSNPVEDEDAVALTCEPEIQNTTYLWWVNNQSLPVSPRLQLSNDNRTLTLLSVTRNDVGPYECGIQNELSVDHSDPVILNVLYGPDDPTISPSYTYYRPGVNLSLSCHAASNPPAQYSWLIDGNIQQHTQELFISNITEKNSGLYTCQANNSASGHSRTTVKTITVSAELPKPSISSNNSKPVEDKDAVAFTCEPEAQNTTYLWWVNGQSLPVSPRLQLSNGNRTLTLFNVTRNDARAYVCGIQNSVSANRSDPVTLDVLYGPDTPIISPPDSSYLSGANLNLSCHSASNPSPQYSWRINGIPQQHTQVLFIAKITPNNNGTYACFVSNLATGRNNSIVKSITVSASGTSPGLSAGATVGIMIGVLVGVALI
Text: (§1) MFE-23 was subcloned for expression as a soluble scFv linked to a C-terminal myc tag to aid identification during protein purification. […] The specificity against a range of normal human tissues was examined and the only reactivity was weak and with normal large bowel--this is in contrast to many anti-CEA monoclonal antibodies which commonly show cross reaction with a variety of normal tissues^7.

[19] = test system: human colorectal adenocarcinomas; assay: Immunohistochemistry with purified scFv on colorectal adenocarcinomas; type: binding; settings: second antibody against myc tag, positive/tested tumours
Text: as §1

normal human tissues = assay: Immunohistochemistry specificity against normal human tissues; type: binding
Text: as §1

[20] = test system: LS174T human colorectal tumour xenografts; assay: Tumour localisation in vivo, Example 1; parameters: species or system nude mice; settings: 125 Iodine labelled, FIG. 2, 29 and 35 hours after injection
Text: Tumour localisation in vivo was studied using LS174T human colorectal tumour xenografts in nude mice.

[21] = Isoelectric focusing (pI of scFvs); type: physicochemical; settings: Amphaline PAG plate pH 3.5-9.5
Text: The isoelectric focusing points of the scFvs were obtained using an Amphaline PAG plate pH 3.5-9.5 (Pharmacia) in accordance with manufacturers instructions.

[22] = Stability of radiolabelled product by gel filtration on S-100 / SDS PAGE; type: physicochemical; settings: 125-I labelled, gel filtration on S-100
CEA [23] = target: T1, CEA; assay: CEA binding of radiolabelled product on CEA/Sepharose column
Procedure: 75 μg of A5-SC and MFE-23 were iodinated with 0.5 mCi of 125-I using the Chloramine T/L-Tyrosine method^20. […] The stability of the radiolabelled products was tested by gel filtration on S-100.
MFE-cys was radiolabelled with ^99m Tc using a ^99m Tc-D-glucarate transfer method^22. 1 ml of ^99m Tc sodium pertechnetate (40.5 mCi) was added to 12.5 mg of monopotassium D-glucarate, 16.8 mg of sodium bicarbonate and 100 μg of stannous chloride (stannous chloride was made up directly before use at a concentration of 0.2 mg/ml). This solution was left for 1 min at room temperature. Then 0.5 ml was mixed with 200 μg MFE-cys in PBS/1 mM EDTA. The mixture was incubated at room temperature for 30 min and then applied to a PD 10 column (Pharmacia; primed with 3% human serum albumin in PBS) to separate the radiolabelled protein from the free pertechnetate. The efficiency of ^99m Tc uptake was tested by thin layer chromatography, using acetonitrile/water (30:20) as running solvent. An aliquot (100 μl) of diluted radiolabelled scFv (1:30 in PBS/Tween 20) was applied to a 1 ml CEA-sepharose column, containing 1 mg of CEA, to test CEA-binding. The column was washed with 8 volumes of PBS/0.05% Tween 20 and bound material was obtained by adding 3M ammoniumthiocyanate. Further, the stability of the labelled scFv was tested by applying the product (diluted 1:30) to Sephacryl S-100. To test the stability of the radiolabelled product in vivo serum taken from mice injected with the labelled scFv 24 h after administration was also applied to Sephacryl S-100. Stability of the ^99m Tc-labelled product was also tested by gel autoradiography as follows: radiolabelled MFE-cys was subjected to SDS-PAGE using a 15% non-reducing acrylamide gel. The protein was then Western blotted onto Immobilon P (Millipore), and visualised by autoradiography using Kodak X-Omatic cassette and Hyperfilm-MP film (Amersham).
Thin layer chromatography (TLC) was performed to measure % ^125 I incorporation. Antigen binding was also assessed by applying a dilution of the radiolabel to a CEA coupled Sepharose 4B (1 mg CEA; 1 ml column volume). The unbound fraction was washed through with 2 column volumes of PBS and the bound fraction with the same volume of 3M ammonium thiocyanate. A control scFv B1.8 which is not specific for CEA and MFE-23 containing a c-myc tag (MFE-23 myc) were tested as a comparison. The unbound and bound fractions were analysed for ^125 I activity using a gamma counter. Stability assessments were carried out by applying a sample of the radiolabel and unlabelled product to a 15% SDS PAGE minigel. The ^125 I-MFE-23 His was visualised by autoradiography and the unlabelled product by Coomassie blue staining. ^125 I-MFE-23 His was also applied to a 100 ml Sephacryl S-100 column (115×1 cm). 1.5 ml fractions were collected and counted for ^125 I activity.

[24] = test system: LS174T human colorectal carcinoma xenograft; assay: Xenograft biodistribution study, Example 2; type: in vivo, nude mice; settings: for percent injected activity per gram of tissue, tumour: 125-I labelled, i.v. tail vein
Procedure: Radiolabelled antibody was administered via the tail vein of nude mice bearing the LS174T human colorectal carcinoma xenograft^21. Each mouse received 4.3 μg/30.12 μCi of A5-SC or 4.3 μg/7.73 μCi of MFE-23. Mice were sacrificed at 24 h and 48 h, and tissues were removed and assessed for activity using a gamma counter. 4 mice were used for each time point.

A5B7 monoclonal anti-CEA antibody
Kd [1]: 25 nM

MFE-23 soluble scFv linked to a C-terminal myc tag
Kd [2]: 2.5 nM | fold affinity against A5B7 [3]: 10 times | percent of counts recovered [4]: 38.7% | counts bound to the column [5]: 23000 cpm | percent of recovered counts bound to the column [5]: 56%

control scFv B1.8
counts bound to the column [6]: 1300 cpm | percent of recovered counts bound to the column [6]: 10%

MFE-cys (cysteine-tagged MFE-23 scFv)
percent of counts recovered in the bound fraction [7]: 55%

A5-SC (scFv derived from monoclonal antibody A5B7)
percent of counts recovered [4]: 30.8%

MFE-23 His (MFE-23 scFv containing 6xHis at the C-terminus)
antigen binding retained [8]: > 75% | percent of loaded counts in the bound fraction on reapplication [9]: 58% | percent of recovered counts in the bound fraction [10]: 75% | mean % bound specific activity [11]: 75% | Bound [12]: 0.68 mg | Specific activity (%) [12]: 75% | Bound [13]: 0.76 mg | Specific activity (%) [13]: 69% | Bound [14]: 0.4 mg | Specific activity (%) [14]: 81% | Bound [15]: 0.83 mg | Specific activity (%) [15]: 89% | antigen binding retained [16]: 84% | counts in the bound fraction [17]: 1280 cpm

B1: MFE-23: anti-CEA single chain Fv selected from a bacteriophage library, sequence of FIG. 3 (SEQ ID No. 2) (protein)
scFv: ETVIMKYLLPTAAAGLLLLAAQPAMAQVKLQQSGAELVRSGTSVKLSCTASGFNIKDSYMHWLRQGPEQGLEWIGWIDPENGDTEYAPKFQGKATFTTDTSSNTAYLQLSSLTSEDTAVYYCNEGTPTGPYYFDYWGQGTTVTVSSGGGGSGGGGSGGGGSENVLTQSPAIMSASPGEKVTITCSASSSVSYMHWFQQKPGTSPKLWIYSTSNLASGVPARFSGSGSGTSYSLTISRMEAEDAATYYCQQRSSYPLTFGAGTKLELKRAA
Kd (CEA [18]): 2.5 ± 1.3 nM | typical CEA-reactive pattern in human colorectal adenocarcinomas [19]: 10/10 | binding to normal tissues (normal human tissues; liver, kidney, large intestine, tonsil, lung, brain, testis, ovary, cervix, breast, blood films, placenta, spleen, thyroid, oesophagus, stomach, pancreas, lymph node, skeletal muscle): did not bind | reactivity with normal large bowel (normal human tissues; only reactivity seen in range of normal human tissues): weak | tumour imaging (gamma camera) [20]: only tumours are visible | pI [21]: 4.5-5.5 | stability after iodination, S-100 elution profile [22]: one peak | percent of counts recovered on binding to CEA/Sepharose (CEA [23]; 125-I radiolabelled products, Example 2): 38.7% | counts in bound fraction of CEA column, % of total counts recovered (CEA [23]; 125I radiolabelled, Example 5): 56% | counts in unbound fraction of CEA column, % of total counts recovered (CEA [23]; 125I radiolabelled, Example 5): 43% | percent injected activity per gram of tissue, tumour ([24]; 24 hours): 3.2% | percent injected activity per gram of tissue, tumour ([24]; 48 hours): 1.2% | localisation in liver and spleen ([24]; in contrast with A5-SC): did not show localisation
